Reference: patent US11965039B2, “Compstatin analogues and their medical uses” (priority 2018, dated 2024)
Starred links: 1 amine or outer side, 2 acyl side, 3 side chain; linkers in the order of their positions; H or OH if unused. Positions of bridges follow the written chain, without caps; N, C: chain ends. Non-standard residues stand in square brackets, D forms with d. X1 = K(γGlu-G-γGlu-17-carboxy-heptadecanoyl), O=C(O)CCCCCCCCCCCCCCCCC(=O)N[C@@H](CCC(=O)NCC(=O)N[C@@H](CCC(=O)NCCCC[C@H](N[*:1])C(=O)[*:2])C(=O)O)C(=O)O; Trp(1-Me) = Cn1cc(C[C@H](N)C(=O)O)c2ccccc21; AEEA = NCCOCCOCC(=O)O; Sar = CNCC(=O)O

Target: Human C3 (Complement tech cat #A113c) (human, UniProt P01024 23-1663)
Assay: cell-based or functional assay

Chain of Human C3 (Complement tech cat #A113c) (P01024 23-1663 limits assumed): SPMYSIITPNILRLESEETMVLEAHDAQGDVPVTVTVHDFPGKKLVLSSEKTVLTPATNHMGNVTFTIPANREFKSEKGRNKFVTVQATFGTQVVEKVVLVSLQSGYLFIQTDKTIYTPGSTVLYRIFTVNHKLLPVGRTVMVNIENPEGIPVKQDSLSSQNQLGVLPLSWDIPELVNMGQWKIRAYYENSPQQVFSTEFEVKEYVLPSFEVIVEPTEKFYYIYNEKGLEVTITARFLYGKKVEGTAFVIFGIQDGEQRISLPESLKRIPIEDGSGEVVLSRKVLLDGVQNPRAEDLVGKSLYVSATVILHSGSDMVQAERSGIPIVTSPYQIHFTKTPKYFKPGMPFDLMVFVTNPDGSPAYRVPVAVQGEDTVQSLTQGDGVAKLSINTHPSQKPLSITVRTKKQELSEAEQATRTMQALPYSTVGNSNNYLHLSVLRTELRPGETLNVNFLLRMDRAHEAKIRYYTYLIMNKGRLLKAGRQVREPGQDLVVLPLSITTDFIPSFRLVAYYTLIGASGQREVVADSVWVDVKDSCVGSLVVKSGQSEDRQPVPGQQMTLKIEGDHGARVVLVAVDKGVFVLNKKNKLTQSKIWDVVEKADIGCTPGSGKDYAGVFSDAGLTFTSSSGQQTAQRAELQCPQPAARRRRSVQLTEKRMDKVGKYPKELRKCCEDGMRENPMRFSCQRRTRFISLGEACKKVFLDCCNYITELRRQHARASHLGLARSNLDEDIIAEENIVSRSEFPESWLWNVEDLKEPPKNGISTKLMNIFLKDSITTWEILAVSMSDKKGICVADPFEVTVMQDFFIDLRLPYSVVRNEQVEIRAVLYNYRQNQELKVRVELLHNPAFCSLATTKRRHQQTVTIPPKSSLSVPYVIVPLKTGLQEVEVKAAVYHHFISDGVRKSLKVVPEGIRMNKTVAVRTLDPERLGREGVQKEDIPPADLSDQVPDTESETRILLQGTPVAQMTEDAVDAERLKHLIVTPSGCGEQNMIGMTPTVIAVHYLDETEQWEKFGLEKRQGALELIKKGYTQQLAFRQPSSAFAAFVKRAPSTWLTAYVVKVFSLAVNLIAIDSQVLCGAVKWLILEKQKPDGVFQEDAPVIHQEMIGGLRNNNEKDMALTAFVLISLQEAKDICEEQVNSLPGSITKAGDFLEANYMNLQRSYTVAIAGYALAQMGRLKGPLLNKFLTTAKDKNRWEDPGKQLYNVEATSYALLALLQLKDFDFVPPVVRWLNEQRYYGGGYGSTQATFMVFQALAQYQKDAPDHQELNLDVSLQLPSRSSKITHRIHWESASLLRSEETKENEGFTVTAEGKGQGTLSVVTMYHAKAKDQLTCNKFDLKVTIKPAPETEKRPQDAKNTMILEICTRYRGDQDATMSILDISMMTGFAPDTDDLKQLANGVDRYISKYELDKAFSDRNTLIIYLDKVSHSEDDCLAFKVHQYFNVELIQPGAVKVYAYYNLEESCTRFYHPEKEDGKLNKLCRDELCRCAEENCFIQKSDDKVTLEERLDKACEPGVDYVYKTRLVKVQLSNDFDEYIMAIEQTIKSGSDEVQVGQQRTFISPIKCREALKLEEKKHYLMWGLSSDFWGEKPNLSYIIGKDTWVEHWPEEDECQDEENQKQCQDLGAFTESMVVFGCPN

B1: Compound 18 (peptide)
peptide: Ac-ICIWQDWGRHRCT-NH2
modifications: disulfide 2-12
SMILES: CC[C@H](C)[C@H](NC(C)=O)C(=O)N[C@H]1CSSC[C@@H](C(=O)N[C@H](C(N)=O)[C@@H](C)O)NC(=O)[C@H](CCCNC(=N)N)NC(=O)[C@H](Cc2c[nH]cn2)NC(=O)[C@H](CCCNC(=N)N)NC(=O)CNC(=O)[C@H](Cc2c[nH]c3ccccc23)NC(=O)[C@H](CC(=O)O)NC(=O)[C@H](CCC(N)=O)NC(=O)[C@H](Cc2c[nH]c3ccccc23)NC(=O)[C@H]([C@@H](C)CC)NC1=O
In the case of B1, the “inhibition of hemolysis IC50” value is reported as under 100 nM.

B2: Compound 138 (peptide)
peptide: Ac-SEFCI[Trp(1-Me)]QDWGEHRC[Sar]EGE-{AEEA-X1-NH2}
modifications: disulfide 4-14
SMILES: CC[C@H](C)[C@@H]1NC(=O)[C@@H](NC(=O)[C@H](Cc2ccccc2)NC(=O)[C@H](CCC(=O)O)NC(=O)[C@H](CO)NC(C)=O)CSSC[C@@H](C(=O)N(C)CC(=O)N[C@@H](CCC(=O)O)C(=O)NCC(=O)N[C@@H](CCC(=O)O)C(=O)NCCOCCOCC(=O)N[C@@H](CCCCNC(=O)CC[C@H](NC(=O)CNC(=O)CC[C@H](NC(=O)CCCCCCCCCCCCCCCCC(=O)O)C(=O)O)C(=O)O)C(N)=O)NC(=O)[C@H](CCCNC(=N)N)NC(=O)[C@H](Cc2c[nH]cn2)NC(=O)[C@H](CCC(=O)O)NC(=O)CNC(=O)[C@H](Cc2c[nH]c3ccccc23)NC(=O)[C@H](CC(=O)O)NC(=O)[C@H](CCC(N)=O)NC(=O)[C@H](Cc2cn(C)c3ccccc23)NC1=O
In the case of B2, the “inhibition of hemolysis IC50” value is reported as under 100 nM.

In the case of Ac-SEFCI[Trp(1-Me)]QDWGEHRCTEGE-{8‑aminooctanoyl-Glu-X1-NH2} (disulfide 4-14) [Compound 137], the “inhibition of hemolysis IC50” value is reported as under 100 nM.

B3: Compound 17 (peptide)
peptide: Ac-ICIWQDWGDHRCT-NH2
modifications: disulfide 2-12
SMILES: CC[C@H](C)[C@H](NC(C)=O)C(=O)N[C@H]1CSSC[C@@H](C(=O)N[C@H](C(N)=O)[C@@H](C)O)NC(=O)[C@H](CCCNC(=N)N)NC(=O)[C@H](Cc2c[nH]cn2)NC(=O)[C@H](CC(=O)O)NC(=O)CNC(=O)[C@H](Cc2c[nH]c3ccccc23)NC(=O)[C@H](CC(=O)O)NC(=O)[C@H](CCC(N)=O)NC(=O)[C@H](Cc2c[nH]c3ccccc23)NC(=O)[C@H]([C@@H](C)CC)NC1=O
For B3, the “inhibition of hemolysis IC50” value was under 100 nM.

B4: Compound 10 (peptide)
peptide: Ac-ESSAYCIWQDWGEHRCT-NH2
modifications: disulfide 6-16
SMILES: CC[C@H](C)[C@@H]1NC(=O)[C@@H](NC(=O)[C@H](Cc2ccc(O)cc2)NC(=O)[C@H](C)NC(=O)[C@H](CO)NC(=O)[C@H](CO)NC(=O)[C@H](CCC(=O)O)NC(C)=O)CSSC[C@@H](C(=O)N[C@H](C(N)=O)[C@@H](C)O)NC(=O)[C@H](CCCNC(=N)N)NC(=O)[C@H](Cc2c[nH]cn2)NC(=O)[C@H](CCC(=O)O)NC(=O)CNC(=O)[C@H](Cc2c[nH]c3ccccc23)NC(=O)[C@H](CC(=O)O)NC(=O)[C@H](CCC(N)=O)NC(=O)[C@H](Cc2c[nH]c3ccccc23)NC1=O
With B4 the “inhibition of hemolysis IC50” value was under 100 nM.

B5: Compound 9 (peptide)
peptide: Ac-YCIWQDWGEHRCT-NH2
modifications: disulfide 2-12
SMILES: CC[C@H](C)[C@@H]1NC(=O)[C@@H](NC(=O)[C@H](Cc2ccc(O)cc2)NC(C)=O)CSSC[C@@H](C(=O)N[C@H](C(N)=O)[C@@H](C)O)NC(=O)[C@H](CCCNC(=N)N)NC(=O)[C@H](Cc2c[nH]cn2)NC(=O)[C@H](CCC(=O)O)NC(=O)CNC(=O)[C@H](Cc2c[nH]c3ccccc23)NC(=O)[C@H](CC(=O)O)NC(=O)[C@H](CCC(N)=O)NC(=O)[C@H](Cc2c[nH]c3ccccc23)NC1=O
B5 was tested, and the “inhibition of hemolysis IC50” value was under 100 nM.

B6: Compound 145 (peptide)
peptide: Ac-EFCI[Trp(1-Me)]QDWGEHRC[Sar]EA-{AEEA-AEEA-X1-NH2}
modifications: disulfide 3-13
SMILES: CC[C@H](C)[C@@H]1NC(=O)[C@@H](NC(=O)[C@H](Cc2ccccc2)NC(=O)[C@H](CCC(=O)O)NC(C)=O)CSSC[C@@H](C(=O)N(C)CC(=O)N[C@@H](CCC(=O)O)C(=O)N[C@@H](C)C(=O)NCCOCCOCC(=O)NCCOCCOCC(=O)N[C@@H](CCCCNC(=O)CC[C@H](NC(=O)CNC(=O)CC[C@H](NC(=O)CCCCCCCCCCCCCCCCC(=O)O)C(=O)O)C(=O)O)C(N)=O)NC(=O)[C@H](CCCNC(=N)N)NC(=O)[C@H](Cc2c[nH]cn2)NC(=O)[C@H](CCC(=O)O)NC(=O)CNC(=O)[C@H](Cc2c[nH]c3ccccc23)NC(=O)[C@H](CC(=O)O)NC(=O)[C@H](CCC(N)=O)NC(=O)[C@H](Cc2cn(C)c3ccccc23)NC1=O
B6 was tested, and the “inhibition of hemolysis IC50” value was under 100 nM.

B7: Compound 143 (peptide)
peptide: Ac-SEFCI[Trp(1-Me)]QDWGEHRC[Sar]EGE-{AEEA-AEEA-AEEA-X1-NH2}
modifications: disulfide 4-14
SMILES: CC[C@H](C)[C@@H]1NC(=O)[C@@H](NC(=O)[C@H](Cc2ccccc2)NC(=O)[C@H](CCC(=O)O)NC(=O)[C@H](CO)NC(C)=O)CSSC[C@@H](C(=O)N(C)CC(=O)N[C@@H](CCC(=O)O)C(=O)NCC(=O)N[C@@H](CCC(=O)O)C(=O)NCCOCCOCC(=O)NCCOCCOCC(=O)NCCOCCOCC(=O)N[C@@H](CCCCNC(=O)CC[C@H](NC(=O)CNC(=O)CC[C@H](NC(=O)CCCCCCCCCCCCCCCCC(=O)O)C(=O)O)C(=O)O)C(N)=O)NC(=O)[C@H](CCCNC(=N)N)NC(=O)[C@H](Cc2c[nH]cn2)NC(=O)[C@H](CCC(=O)O)NC(=O)CNC(=O)[C@H](Cc2c[nH]c3ccccc23)NC(=O)[C@H](CC(=O)O)NC(=O)[C@H](CCC(N)=O)NC(=O)[C@H](Cc2cn(C)c3ccccc23)NC1=O
In the case of B7, the “inhibition of hemolysis IC50” value is reported as under 100 nM.

B8: Compound 11 (peptide)
peptide: Ac-[Sar]CIWQDWGEHRCT-NH2
modifications: disulfide 2-12
SMILES: CC[C@H](C)[C@@H]1NC(=O)[C@@H](NC(=O)CN(C)C(C)=O)CSSC[C@@H](C(=O)N[C@H](C(N)=O)[C@@H](C)O)NC(=O)[C@H](CCCNC(=N)N)NC(=O)[C@H](Cc2c[nH]cn2)NC(=O)[C@H](CCC(=O)O)NC(=O)CNC(=O)[C@H](Cc2c[nH]c3ccccc23)NC(=O)[C@H](CC(=O)O)NC(=O)[C@H](CCC(N)=O)NC(=O)[C@H](Cc2c[nH]c3ccccc23)NC1=O
For B8, the “inhibition of hemolysis IC50” value was under 100 nM.

B9: Compound 14 (peptide)
peptide: Ac-ESSAICIWQDWGEHRCTGAES-NH2
modifications: disulfide 6-16
SMILES: CC[C@H](C)[C@H](NC(=O)[C@H](C)NC(=O)[C@H](CO)NC(=O)[C@H](CO)NC(=O)[C@H](CCC(=O)O)NC(C)=O)C(=O)N[C@H]1CSSC[C@@H](C(=O)N[C@H](C(=O)NCC(=O)N[C@@H](C)C(=O)N[C@@H](CCC(=O)O)C(=O)N[C@@H](CO)C(N)=O)[C@@H](C)O)NC(=O)[C@H](CCCNC(=N)N)NC(=O)[C@H](Cc2c[nH]cn2)NC(=O)[C@H](CCC(=O)O)NC(=O)CNC(=O)[C@H](Cc2c[nH]c3ccccc23)NC(=O)[C@H](CC(=O)O)NC(=O)[C@H](CCC(N)=O)NC(=O)[C@H](Cc2c[nH]c3ccccc23)NC(=O)[C@H]([C@@H](C)CC)NC1=O
In the case of B9, the “inhibition of hemolysis IC50” value is reported as under 100 nM.

B10: Compound 16 (peptide)
peptide: Ac-ICIWQEWGEHRCT-NH2
modifications: disulfide 2-12
SMILES: CC[C@H](C)[C@H](NC(C)=O)C(=O)N[C@H]1CSSC[C@@H](C(=O)N[C@H](C(N)=O)[C@@H](C)O)NC(=O)[C@H](CCCNC(=N)N)NC(=O)[C@H](Cc2c[nH]cn2)NC(=O)[C@H](CCC(=O)O)NC(=O)CNC(=O)[C@H](Cc2c[nH]c3ccccc23)NC(=O)[C@H](CCC(=O)O)NC(=O)[C@H](CCC(N)=O)NC(=O)[C@H](Cc2c[nH]c3ccccc23)NC(=O)[C@H]([C@@H](C)CC)NC1=O
B10 was tested, and the “inhibition of hemolysis IC50” value was under 100 nM.

B11: Compound 13 (peptide)
peptide: Ac-ICIWQDWGEHRC[Sar]-NH2
modifications: disulfide 2-12
SMILES: CC[C@H](C)[C@H](NC(C)=O)C(=O)N[C@H]1CSSC[C@@H](C(=O)N(C)CC(N)=O)NC(=O)[C@H](CCCNC(=N)N)NC(=O)[C@H](Cc2c[nH]cn2)NC(=O)[C@H](CCC(=O)O)NC(=O)CNC(=O)[C@H](Cc2c[nH]c3ccccc23)NC(=O)[C@H](CC(=O)O)NC(=O)[C@H](CCC(N)=O)NC(=O)[C@H](Cc2c[nH]c3ccccc23)NC(=O)[C@H]([C@@H](C)CC)NC1=O
B11 was tested, and the “inhibition of hemolysis IC50” value was under 100 nM.

B12: Compound 12 (peptide)
peptide: Ac-ICIWQDWGAHRCE-NH2
modifications: disulfide 2-12
SMILES: CC[C@H](C)[C@H](NC(C)=O)C(=O)N[C@H]1CSSC[C@@H](C(=O)N[C@@H](CCC(=O)O)C(N)=O)NC(=O)[C@H](CCCNC(=N)N)NC(=O)[C@H](Cc2c[nH]cn2)NC(=O)[C@H](C)NC(=O)CNC(=O)[C@H](Cc2c[nH]c3ccccc23)NC(=O)[C@H](CC(=O)O)NC(=O)[C@H](CCC(N)=O)NC(=O)[C@H](Cc2c[nH]c3ccccc23)NC(=O)[C@H]([C@@H](C)CC)NC1=O
For B12, the “inhibition of hemolysis IC50” value was under 100 nM.

B13: Compound 144 (peptide)
peptide: Ac-SEFCI[Trp(1-Me)]QDW[Sar]EHRC[Sar]E-{AEEA-AEEA-X1-NH2}
modifications: disulfide 4-14
SMILES: CC[C@H](C)[C@@H]1NC(=O)[C@@H](NC(=O)[C@H](Cc2ccccc2)NC(=O)[C@H](CCC(=O)O)NC(=O)[C@H](CO)NC(C)=O)CSSC[C@@H](C(=O)N(C)CC(=O)N[C@@H](CCC(=O)O)C(=O)NCCOCCOCC(=O)NCCOCCOCC(=O)N[C@@H](CCCCNC(=O)CC[C@H](NC(=O)CNC(=O)CC[C@H](NC(=O)CCCCCCCCCCCCCCCCC(=O)O)C(=O)O)C(=O)O)C(N)=O)NC(=O)[C@H](CCCNC(=N)N)NC(=O)[C@H](Cc2c[nH]cn2)NC(=O)[C@H](CCC(=O)O)NC(=O)CN(C)C(=O)[C@H](Cc2c[nH]c3ccccc23)NC(=O)[C@H](CC(=O)O)NC(=O)[C@H](CCC(N)=O)NC(=O)[C@H](Cc2cn(C)c3ccccc23)NC1=O
B13 was tested, and the “inhibition of hemolysis IC50” value was under 100 nM.
